Measured values as given in US20210115098A1.

Target: activin-like kinase 4 and/or 5 receptor (ALK4/5)
Experiment: cell-based or functional assay

Smad-2/3 responsive luciferase reporter, maximal response at 50 ng/mL relative to Mutant 1: 10 % reduction
Substance: Cumulin-like GDF9_H369N (Mutant 7) (from UniProt O60383 30-318) (ligand)
